Where no end group is shown, it is not given here.
Target: T1, Zap70 D461N-tagged (Myc- or hemagglutinin-tagged, kinase-inactive Zap70) (human, UniProt P43403 1-619, D461N)
T1 sequence (looked up): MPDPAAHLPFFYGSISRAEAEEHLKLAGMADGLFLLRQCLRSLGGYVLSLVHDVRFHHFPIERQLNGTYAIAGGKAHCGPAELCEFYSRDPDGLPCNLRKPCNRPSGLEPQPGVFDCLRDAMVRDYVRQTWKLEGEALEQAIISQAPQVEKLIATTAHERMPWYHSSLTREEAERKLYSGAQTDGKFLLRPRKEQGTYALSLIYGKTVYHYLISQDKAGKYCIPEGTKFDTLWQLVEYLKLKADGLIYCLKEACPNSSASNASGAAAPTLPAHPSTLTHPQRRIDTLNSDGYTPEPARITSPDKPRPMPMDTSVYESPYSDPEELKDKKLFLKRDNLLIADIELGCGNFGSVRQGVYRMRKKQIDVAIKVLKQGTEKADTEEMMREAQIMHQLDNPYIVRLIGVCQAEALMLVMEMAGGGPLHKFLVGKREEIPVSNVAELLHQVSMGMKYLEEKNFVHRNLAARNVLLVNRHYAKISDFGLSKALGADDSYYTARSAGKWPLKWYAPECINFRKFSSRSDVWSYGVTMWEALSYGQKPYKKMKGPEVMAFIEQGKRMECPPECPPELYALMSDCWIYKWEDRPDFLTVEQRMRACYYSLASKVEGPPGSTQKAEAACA
Test: ELISA

GGAGQDGVRQSRASDKQTLLPNDQLYQPLKDREDDQYSHLQGNQLRRN (domain or fragment, also: ITAM phosphorylated by Lck, sites not given here, GST fusion): binds.

Source: publication PMC5490839 (Nature immunology, 2016)
